This is an account of results in patent publication US20060281073A1.

The assay concerns the target αv integrins on NIH3T3 cells (αvβ3 and αvβ5) (mouse) (UniProt P43406). Briefly: cell-based or functional assay.
UniProt P43406, sequence (P43406 whole entry): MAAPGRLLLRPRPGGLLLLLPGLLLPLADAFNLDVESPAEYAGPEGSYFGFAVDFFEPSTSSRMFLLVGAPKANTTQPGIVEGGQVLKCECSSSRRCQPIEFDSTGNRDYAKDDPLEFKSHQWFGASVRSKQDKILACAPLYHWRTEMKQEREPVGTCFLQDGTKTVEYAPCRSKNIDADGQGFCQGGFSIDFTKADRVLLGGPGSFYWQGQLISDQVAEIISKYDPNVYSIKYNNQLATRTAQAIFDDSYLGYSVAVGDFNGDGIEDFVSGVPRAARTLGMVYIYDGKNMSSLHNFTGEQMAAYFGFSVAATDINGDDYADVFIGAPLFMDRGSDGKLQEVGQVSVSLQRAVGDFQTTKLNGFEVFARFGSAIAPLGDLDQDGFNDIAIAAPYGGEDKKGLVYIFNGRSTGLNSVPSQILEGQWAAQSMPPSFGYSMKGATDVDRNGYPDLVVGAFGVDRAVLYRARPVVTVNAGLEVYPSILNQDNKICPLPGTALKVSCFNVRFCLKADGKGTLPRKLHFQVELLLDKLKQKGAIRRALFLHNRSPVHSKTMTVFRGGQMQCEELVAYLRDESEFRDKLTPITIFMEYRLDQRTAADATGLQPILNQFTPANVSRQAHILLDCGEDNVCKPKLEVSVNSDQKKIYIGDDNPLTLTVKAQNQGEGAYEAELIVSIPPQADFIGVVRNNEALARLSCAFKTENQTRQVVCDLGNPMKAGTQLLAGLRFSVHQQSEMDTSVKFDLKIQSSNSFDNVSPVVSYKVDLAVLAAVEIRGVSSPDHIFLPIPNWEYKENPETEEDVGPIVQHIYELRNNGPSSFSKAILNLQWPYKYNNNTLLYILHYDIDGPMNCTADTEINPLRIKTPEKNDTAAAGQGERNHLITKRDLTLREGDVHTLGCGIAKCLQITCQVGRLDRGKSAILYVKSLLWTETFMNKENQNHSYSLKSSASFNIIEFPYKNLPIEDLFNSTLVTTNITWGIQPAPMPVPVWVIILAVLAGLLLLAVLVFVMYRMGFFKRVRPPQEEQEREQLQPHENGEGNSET

On to GRGDSP [RGD peptide (GRGDSP)], for which the reduction of transduction of Ad5luc-L1 in NIH3T3 cells compared to control RGE peptide was 40 % reduction, the reduction of transduction of Ad5luc-L16 in NIH3T3 cells compared to control RGE peptide stood at 60 % reduction and the reduction of transduction of Ad5luc-L33 in NIH3T3 cells compared to control RGE peptide is 61 % reduction.
